We go through 5 molecules from PMC7610652 (Nature structural & molecular biology, 2021).

The labels stand for the following.
B2: RPC4, subunit of the human RNA polymerase III heterodimer (natural protein)
chain: MSEGNAAGEPSTPGGPRPLLTGARGLIGRRPAPPLTPGRLPSIRSRDLTLGGVKKKTFTPNIISRKIKEEPKEEVTVKKEKRERDRDRQREGHGRGRGRPEVIQSHSIFEQGPAEMMKKKGNWDKTVDVSDMGPSHIINIKKEKRETDEETKQILRMLEKDDFLDDPGLRNDTRNMPVQLPLAHSGWLFKEENDEPDVKPWLAGPKEEDMEVDIPAVKVKEEPRDEEEEAKMKAPPKAARKTPGLPKDVSVAELLRELSLTKEEELLFLQLPDTLPGQPPTQDIKPIKTEVQGEDGQVVLIKQEKDREAKLAENACTLADLTEGQVGKLLIRKSGRVQLLLGKVTLDVTMGTACSFLQELVSVGLGDSRTGEMTVLGHVKHKLVCSPDFESLLDHKHR
B5: RPC7α, subunit of the human RNA polymerase III heterotrimer (natural protein)
chain: MAGNKGRGRAAYTFNIEAVGFSKGEKLPDVVLKPPPLFPDTDYKPVPLKTGEGEEYMLALKQELRETMKRMPYFIETPEERQDIERYSKRYMKVYKEEWIPDWRRLPREMMPRNKCKKAGPKPKKAKDAGKGTPLTNTEDVLKKMEELEKRGDGEKSDEENEEKEGSKEKSKEGDDDDDDDAAEQEEYDEEEQEEENDYINSYFEDGDDFGADSDDNMDEATY

What all share (assay): cryo-EM structure
For assay [1], the target named is T1, RPC1, subunit of human RNA polymerase III (human, UniProt O14802 1-1390).
T1 sequence: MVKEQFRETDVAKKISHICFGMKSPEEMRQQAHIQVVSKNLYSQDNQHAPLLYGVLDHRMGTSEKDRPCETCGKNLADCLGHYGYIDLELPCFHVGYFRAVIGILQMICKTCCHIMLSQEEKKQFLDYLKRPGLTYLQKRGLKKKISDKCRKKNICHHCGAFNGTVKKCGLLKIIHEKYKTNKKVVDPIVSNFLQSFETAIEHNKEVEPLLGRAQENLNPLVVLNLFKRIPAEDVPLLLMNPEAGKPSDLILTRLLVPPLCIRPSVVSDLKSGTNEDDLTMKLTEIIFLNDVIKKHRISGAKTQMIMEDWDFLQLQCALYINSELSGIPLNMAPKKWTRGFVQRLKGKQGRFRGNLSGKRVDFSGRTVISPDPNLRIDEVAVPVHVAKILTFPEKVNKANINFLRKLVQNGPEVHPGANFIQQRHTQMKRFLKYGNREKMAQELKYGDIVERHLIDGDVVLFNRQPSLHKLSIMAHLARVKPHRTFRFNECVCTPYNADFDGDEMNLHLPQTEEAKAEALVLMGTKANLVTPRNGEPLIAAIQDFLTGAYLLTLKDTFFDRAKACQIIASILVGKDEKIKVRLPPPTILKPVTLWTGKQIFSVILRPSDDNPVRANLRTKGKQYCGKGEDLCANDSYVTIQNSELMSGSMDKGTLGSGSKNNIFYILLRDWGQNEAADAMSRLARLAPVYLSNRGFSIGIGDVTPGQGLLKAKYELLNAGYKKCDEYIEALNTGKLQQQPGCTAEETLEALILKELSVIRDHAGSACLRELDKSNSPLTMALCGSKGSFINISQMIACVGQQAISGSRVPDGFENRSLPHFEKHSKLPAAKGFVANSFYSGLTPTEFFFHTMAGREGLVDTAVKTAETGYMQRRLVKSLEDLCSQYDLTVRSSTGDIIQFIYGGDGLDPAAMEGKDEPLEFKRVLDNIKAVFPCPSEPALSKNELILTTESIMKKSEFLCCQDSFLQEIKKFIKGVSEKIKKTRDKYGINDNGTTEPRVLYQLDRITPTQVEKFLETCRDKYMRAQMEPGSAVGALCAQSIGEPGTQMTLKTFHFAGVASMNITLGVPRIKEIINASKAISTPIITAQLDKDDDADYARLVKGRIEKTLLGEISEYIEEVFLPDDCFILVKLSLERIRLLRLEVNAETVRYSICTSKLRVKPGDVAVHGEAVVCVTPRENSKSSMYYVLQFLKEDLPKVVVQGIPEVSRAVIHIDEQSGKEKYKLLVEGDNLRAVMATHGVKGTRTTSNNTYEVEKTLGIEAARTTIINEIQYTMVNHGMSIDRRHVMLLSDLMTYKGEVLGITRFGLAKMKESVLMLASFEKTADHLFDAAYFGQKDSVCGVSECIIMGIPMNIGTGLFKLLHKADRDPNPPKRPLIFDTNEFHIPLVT

Assay [2] deals with B2.
For assay [3], the target named is T2, RPC5, subunit of the human RNA polymerase III heterodimer (human, UniProt Q9NVU0 1-708).
T2 sequence: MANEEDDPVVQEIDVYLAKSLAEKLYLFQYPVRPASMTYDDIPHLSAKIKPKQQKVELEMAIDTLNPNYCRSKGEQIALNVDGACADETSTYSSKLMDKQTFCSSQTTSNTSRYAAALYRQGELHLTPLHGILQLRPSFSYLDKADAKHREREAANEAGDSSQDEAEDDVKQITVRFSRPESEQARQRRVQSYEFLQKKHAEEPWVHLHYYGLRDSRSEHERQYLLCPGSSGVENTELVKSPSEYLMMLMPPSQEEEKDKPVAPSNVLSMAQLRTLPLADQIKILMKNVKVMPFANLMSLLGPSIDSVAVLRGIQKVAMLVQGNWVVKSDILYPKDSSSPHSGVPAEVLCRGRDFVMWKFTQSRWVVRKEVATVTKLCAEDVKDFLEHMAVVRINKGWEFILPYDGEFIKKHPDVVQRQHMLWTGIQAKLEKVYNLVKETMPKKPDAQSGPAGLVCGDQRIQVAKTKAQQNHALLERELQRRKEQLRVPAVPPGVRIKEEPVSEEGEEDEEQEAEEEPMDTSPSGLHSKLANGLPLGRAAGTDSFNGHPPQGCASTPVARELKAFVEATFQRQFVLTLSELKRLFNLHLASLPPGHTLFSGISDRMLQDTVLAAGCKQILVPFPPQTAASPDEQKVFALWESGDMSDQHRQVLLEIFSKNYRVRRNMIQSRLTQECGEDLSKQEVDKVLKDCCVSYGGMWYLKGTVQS

The target in assay [4] is T3, RPC3, subunit of the human RNA polymerase III heterotrimer (human, UniProt Q9BUI4 1-534).
T3 sequence: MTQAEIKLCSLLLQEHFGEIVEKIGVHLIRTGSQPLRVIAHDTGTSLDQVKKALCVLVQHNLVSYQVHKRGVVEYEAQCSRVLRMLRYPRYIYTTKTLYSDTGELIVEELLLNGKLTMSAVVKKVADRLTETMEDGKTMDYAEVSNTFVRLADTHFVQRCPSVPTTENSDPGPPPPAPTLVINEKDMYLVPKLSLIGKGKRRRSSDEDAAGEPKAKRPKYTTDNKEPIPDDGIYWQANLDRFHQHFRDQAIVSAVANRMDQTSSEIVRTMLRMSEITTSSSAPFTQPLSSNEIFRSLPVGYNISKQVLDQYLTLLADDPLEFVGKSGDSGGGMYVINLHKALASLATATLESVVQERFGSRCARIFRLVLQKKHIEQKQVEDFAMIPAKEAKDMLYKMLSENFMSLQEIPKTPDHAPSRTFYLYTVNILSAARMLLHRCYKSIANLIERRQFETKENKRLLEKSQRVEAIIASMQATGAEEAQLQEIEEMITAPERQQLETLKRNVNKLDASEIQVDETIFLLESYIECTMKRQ

In assay [5] the target is B5.

B1: RPC10, TFIIS-like subunit of human RNA polymerase III (natural protein)
chain: not shown
Take B1: the binding result in assay [1], in assay [2] and in assay [3] was “binds” in each case.
Take B2: the binding result in assay [1] and in assay [3] was “binds” each time.

B3: RPC6, subunit of the human RNA polymerase III heterotrimer (natural protein)
chain: MAEVKVKVQPPDADPVEIENRIIELCHQFPHGITDQVIQNEMPHIEAQQRAVAINRLLSMGQLDLLRSNTGLLYRIKDSQNAGKMKGSDNQEKLVYQIIEDAGNKGIWSRDIRYKSNLPLTEINKILKNLESKKLIKAVKSVAASKKKVYMLYNLQPDRSVTGGAWYSDQDFESEFVEVLNQQCFKFLQSKAETARESKQNPMIQRNSSFASSHEVWKYICELGISKVELSMEDIETILNTLIYDGKVEMTIIAAKEGTVGSVDGHMKLYRAVNPIIPPTGLVRAPCGLCPVFDDCHEGGEISPSNCIYMTEWLEF
In the case of B3, the binding result in assay [1] and in assay [4] was “binds” each time.

B4: RPC8, stalk subunit of human RNA polymerase III (natural protein)
chain: MFVLVEMVDTVRIPPWQFERKLNDSIAEELNKKLANKVVYNVGLCICLFDITKLEDAYVFPGDGASHTKVHFRCVVFHPFLDEILIGKIKGCSPEGVHVSLGFFDDILIPPESLQQPAKFDEAEQVWVWEYETEEGAHDLYMDTGEEIRFRVVDESFVDTSPTGPSSADATTSSEELPKKEAPYTLVGSISEPGLGLLSWWTSN
For the molecule B4, in assay [5], the binding result is reported as “binds”.
For the molecule B5, the binding result in assay [1] and in assay [4] was “binds” in each case.
